Data taken from patent US7579150B1, “Mobile RNA acts as a signal to regulate plant growth and development” (Iowa State University Research Foundation, Inc., priority 2004, dated 2009).
Entries after “also recorded” stand apart in the source; their conditions may differ.

B1: POTH1: KNOX transcription factor of potato, SEQ ID NO:17, 345 aa (protein, listed as Solanum tuberosum)
chain: MDDEMYGFHSTRDDYADKALMSPENLMMQTEYNNFHNYTNSSILTSNPMMFGSDDIQLSSEQTNSFSTMTLQNNDNIYQIRSGNCGGGSGSGGSSKDHNDNNNNNEDYDEDGSNVIKAKIVSHPYYPKLLNAYIDCQKVGAPAGIVNLLEEIRQQTDFRKPNATSICIGADPELDEFMETYCDILLKYKSDLSRPFDEATTFLNKIEMQLGNLCKDDGGVSSDEELSCGEADASMRSEDNELKDRLLRKFGSHLSSLKLEFSKKKKKGKLPKEARQMLLAWWDDHFRWPYPTEADKNSLAESTGLDPKQINNWFINQRKRHWKPSENMQLAVMDNLSSQFFSSDD
B2: StBEL-05: BEL transcription factor from Solanum tuberosum, SEQ ID NO:2, 688 aa (protein, listed as Solanum tuberosum)
chain: MYYQGTSDNTNIQADHQQRHNHGNSNNNNIQTLYLMNPNNYMQGYTTSDTQQQQQLLFLNSSPAASNALCHANIQHAPLQQQHFVGVPLPAVSLHDQINHHGLLQRMWNNQDQSQQVIVPSSTGVSATSCGGITTDLASQLAFQRPIPTPQHRQQQQQQGGLSLSLSPQLQQQISFNNNISSSSPRTNNVTIRGTLDGSSSNMVLGSKYLKAAQELLDEVVNIVGKSIKGDDQKKDNSMNKESMPLASDVNTNSSGGGESSSRQKNEVAVELTTAQRQELQMKKAKLLAMLEEVEQRYRQYHHQMQIIVLSFEQVAGIGSAKSYTQLALHAISKQFRCLKDAIAEQVKATSKSLGEEEGLGGKIEGSRLKFVDHHLRQQRALQQIGMMQPNAWRPQRGLPERAVSVLRAWLFEHFLHPYPKDSDKIMLAKQTGLTRSQVSNWFINARVRLWKPMVEEMYLEEVKNQEQNSTNTSGDNKNKETNISAPNEEKHPIITSSLLQDGITTTQAEISTSTISTSPTAGASLHHAHNFSFLGSFNMDNTTTTVDHIENNAKKQRNDMHKFSPSSILSSVDMEAKARESSNKGFTNPLMAAYAMGDFGRFDPHDQQMTANFHGNNGVSLTLGLPPSENLAMPVSQQNYLSNDLGSRSEMGSHYNRMGYENIDFQSGNKRFPTQLLPDFVTGNLGT

What was measured:
[1] = system: POTH1 overexpression lines; assay: Exogenous GA3 application to POTH1 overexpression lines; assay type: in vivo, Solanum tuberosum; details: shoot apex sprayed with 10 μM GA3 in 0.002% (v/v) ethanol
From the text: Many of the traits of the phenotypes observed in POTH1 overexpression lines were similar to GA-deficient mutants. These similarities included decreased plant height, decreased internode length, and darker green coloration of the leaves (van den Berg et al., “Morphology and [^14C]Gibberellin A12 Metabolism in Wild-Type and Dwarf Solanum Tuberosum ssp. Andigena Grown Under Long and Short Photoperiods,” J. Plant Physiol. 146:467-473 (1995), which is hereby incorporated by reference in its entirety). Because of this, exogenous GA3 was applied to determine whether the overexpression lines were responsive to GA treatment. The shoot apex of overexpression lines was sprayed to runoff with 10 μM GA3 in 0.002% (v/v) ethanol or with 0.002% (v/v) ethanol alone. […] Palisade and spongy parenchyma organization is partially rescued in leaves from line 15 treated with GA3 (FIG. 5G). The GA3-treated leaf (FIG. 5J) of the severe mutant, line 15, is more similar in morphology to the wild-type leaf (FIG. 5K). Leaflets are more ovate in form rather than the typical mouse-ear shape. Wild-type leaves have a prominent mid-vein (FIG. 5L), whereas the mid-vein (FIG. 5M, arrow) is more prominent in the mutant GA3-treated leaf than in the mutant untreated leaf (FIG. 5N). […]

CaMV 35S promoter = assay: Transcription (transfection) assay, 35S GUS construct in tobacco protoplasts; assay type: cell-based, cauliflower mosaic virus
[2] = system: ga20ox1 promoter regions P1, P2, P3 and first intron; assay: Gel retardation (gel mobility shift) assay; assay type: binding, potato; details: recombinant protein from E. coli
From the text: The first intron with partial flanking exon sequence (450 bp) of potato ga20ox1 and its promoter (981 bp, provided by Dr. Salomé Prat, CSIC Cantoblanco Campus, Univ. of Madrid, Spain) were used for gel mobility shift assays. Polymerase chain reaction (PCR) was used to amplify three regions of the promoter: −981 to 636 (P1), −660 to 307 (P2), and −331 to 0 (P3). About a 25-bp overlap was maintained between P1 and P2 or P2 and P3 in the chance that the protein-binding site would span the overlapped region. The first intron of this gene was amplified from potato genomic DNA by using PCR and the oligos 5′-[…]-3′ (SEQ ID NO:21) and 5′-[…]-3′ (SEQ ID NO:22) as primers. These primers were designed based on the site of the first intron of the tobacco GA20 oxidase gene Ntc12. The four fragments were purified on a 1.4% agarose gel and labeled with α^32P-dATP using Klenow fragment. […]
In the competition assays, unlabeled double-stranded DNA fragments (10×, 25×, 50×, 100×) were incubated with the recombinant protein before the addition of the radioactive probe. The dissociation rates were determined by adding 500-fold more cold DNA fragments to the DNA-binding reactions that were being incubated on ice, and loaded onto the running gel every 10 minutes. […]

ga20ox1 promoter = assay: Transcription (transfection) assay, pGAOP::GUS reporter in tobacco protoplasts; assay type: cell-based, potato; details: for decrease of relative GUS-LUC activity of the pGAOP::GUS reporter: co-transfected effector, tobacco protoplasts; for repression of ga20ox1 promoter with point mutation in the binding site: mutated reporter construct
From the text: The cauliflowermosaic virus (CaMV) 35S promoter in pBI221 (Clontech, Palo Alto, Calif.) was replaced by an enhancer fragment (−832 to −50) of the 35S promoter plus 980 bp of the ga20ox1 promoter to generate the pGAOP::β-glucuronidase (GUS) reporter construct. With this construct, the reporter GUS transcription level is augmented but its transcription may still be affected by the ga20ox1 promoter. A CaMV 35S promoter-driven luciferase (LUC) construct 35S-LUC (obtained from Dr. Takahashi, Dept. of Biological Sciences, Graduate School of Science, Univ. of Tokyo, Japan) was used as an internal control. Effector constructs were also generated by using pBI221 vector as a backbone, with the GUS gene replaced by the full-length cDNAs of either StBEL-05 or POTH1, downstream of the CaMV 35S promoter. Truncated cDNAs that encode the N-terminal protein-binding domains of StBEL-05 or POTH1 were used to generate the dominant negative constructs, StBEL5ΔC295 and POTH1ΔC122, respectively. The reporter construct with the mutated promoter was generated by site-directed PCR mutagenesis with oligos 5′-CTATTTGACTTC*ACACGGTTATTT-3′ (SEQ ID NO:23) and 5′-AAATAACCGTGTG*AAGTCAAATAG-3′ (SEQ ID NO:24).
Fully expanded leaves from three- to four-week-old tobacco plants were excised and placed in K3 basal media (Kao et al., “Nutritional Requirements for Growth of Vicia hajastana Cells and Protoplasts at a Very Low Density in Liquid Media,” Planta 126:105-110 (1975), which is hereby incorporated by reference in its entirety) supplemented with 0.4 M sucrose, 0.25% (w-v) cellulases (Karlan Research Products, Santa Rosa, CA), and 0.05% (w-v) macerases (Calbiochem, La Jolla, Calif.) and incubated for overnight at 28° C. After incubation, the liberated protoplasts were filtered through sterile cheesecloth into a Babcock bottle, and centrifuged for 10 minutes at 1000 rpm. Protoplasts were collected from the bottleneck area and washed once in K3 media with 0.4 M sucrose and resuspended in K3 media containing 0.4 M glucose to a final concentration of 4×10^6 protoplasts per milliliter. […]
Luciferase assays were performed by injecting 100-μL luciferase substrate (Promega, Madison, Wis.) into 20 μL of extract and measuring the emitted photons for 15 seconds in a TD-20 luminometer (Turner Designs, Sunnyvale, Calif.). […] A fluorescence multiwell plate reader, Fluoroskan II (MTX labs, Vienna, Va.), was used to measure GUS activity at 365 nm (excitation) and 455 nm (emission). Each sample was measured three times for both LUC and GUS activity. Relative GUS-LUC activity was calculated by dividing the ratio of GUS activity to LUC activity from different effectors with the ratio from reporter plasmid alone. Relative activities calculated from three transfection replications were presented as a mean±SE.

POTH1 = assay: Yeast two-hybrid interaction with POTH1 (nutritional selection, beta-galactosidase); assay type: cell-based, potato; details: yeast strain AH109, nutritional markers and lacZ
From the text: The Matchmaker two-hybrid system (Clontech, CA) was used for the yeast two-hybrid screen. Yeast transformation and plasmid rescue into DH5-a E. coli cells were according to the manufacturer's instructions. Full-length POTH1 was cloned into the pBridge (Clontech, CA) vector and used as bait to screen the potato (S. tuberosum ‘Desireé’) stolon cDNA library in pAD-GAL4-2.1 (Stratagene, Calif.). Positive interactions were confirmed by cotransforming yeast strain AH109 with each purified pAD plasmid and pBridge: POTH1 and plating on -leucine/-tryptophan (transformation control) and -leucine/-tryptophan/-histidine/-adenine (selection) nutrient medium. Induction of the AH109 reporter gene, lacZ, was measured with a yeast β-galactosidase assay kit (Pierce Chemicals). β-galactosidase activity (FIG. 9B) was determined from a known density of yeast cells and calculated as 1000×OD420/time of color reaction (minutes)×volume of yeast culture (ml)×OD600.
The StBEL-05 deletion constructs were amplified by PCR, then cloned into the vector, pGAD, in-frame with the GAL4 activation domain. POTH1 deletion constructs were amplified by PCR, and cloned into pBridge (Clontech) in-frame with the GAL4 binding domain. Sequencing of selected cDNAs and constructs was performed at the Iowa State University DNA Facility. For deletion analysis, modified constructs of POTH1 were cloned into the pBridge vector for fusion with the DNA-binding domain of GAL4 (FIG. 10A). For StBEL-05, constructs were cloned into the pGAD vector for fusion with the activating domain of GAL4 (FIG. 10B). Deletion constructs were made from both the amino and carboxy termini. These mutants were then tested for interaction in the yeast two-hybrid system by cotransforming into yeast strain AH109 with the corresponding full-length partner (StBEL-05 in pGAL4 or POTH1 in pBridge). All constructs were sequenced to verify that they were in-frame. Positive interactions were verified for lacZ induction by using a β-galactosidase assay (Pierce Chemical Company). For POTH1, seven deletion constructs were tested (FIG. 10A). For the BEL TFs, a fusion construct of StBEL-05 (653 aa of StBEL-05 sequence) and nine deletion constructs were tested (FIG. 10B).

Molecule	effect on leaf morphology of POTH1 overexpression lines [1]	effect on plant height / dwarf phenotype of POTH1 overexpression lines [1]	effect on activity of the CaMV 35S promoter (CaMV 35S promoter)	binding to ga20ox1 regulatory regions [2]	decrease of relative GUS-LUC activity of the pGAOP::GUS reporter (ga20ox1 promoter)	repression of ga20ox1 promoter with point mutation in the binding site (ga20ox1 promoter)	interaction with POTH1 (POTH1)
C=C1C[C@]23C[C@@]1(O)CC[C@H]2[C@@]12C=C[C@H](O)[C@@](C)(C(=O)O1)[C@H]2[C@@H]3C(=O)O [GA3]	partially rescued the leaf morphology of both severe and intermediate phenotypes; also recorded: partial reversal of the leaf phenotype	caused plants with a severe phenotype to increase in height; also recorded: completely rescued the dwarf phenotype					
B1			Neither StBEL-05 nor POTH1 showed any effect	only formed a complex with P1	more than half	no detectable repression of promoter activity	
B2			Neither StBEL-05 nor POTH1 showed any effect	retarded the mobility of all three promoter sequences and the first intron	more than half	no detectable repression of promoter activity	showed selective interaction
